This assay deals with T1, ヒト心筋由来トロポニンI (human, UniProt P19429 2-210).
T1 construct: It is not the protein on the chip; also called human cardiac troponin I; cTnI
Briefly: SPR (Biacore T100), troponin I on a CM5 chip, scFv as analyte. (In general: In SPR one partner is held on a chip, and binding of the other changes the refractive index at the surface.)

We go through one molecule from patent JP2013172663A (dated 2013).

T1 sequence (P19429 2-210 limits assumed): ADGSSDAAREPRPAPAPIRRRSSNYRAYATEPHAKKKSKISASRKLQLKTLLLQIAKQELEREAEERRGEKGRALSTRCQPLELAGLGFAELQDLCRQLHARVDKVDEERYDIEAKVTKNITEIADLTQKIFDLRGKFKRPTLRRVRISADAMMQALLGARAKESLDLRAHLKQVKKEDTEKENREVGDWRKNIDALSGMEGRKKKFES

B1: 野生型scFv抗体フラグメント(配列番号:62) (scFv)
scFv: DVVLTQSPLTLSVTIGQPASISCKSSQSLLDSDGKTYLNWLLQRPGQSPKRLIYLVSKLDSGVPDRFTGSGSGTDFTLKISRVEAEDLGVYYCWQGTHFPLTFGAGTKLEIKRGGGGSGGGGSGGGGSQLQLQQSGAELVRSGASVKLSCTASGFNIKDYYMNWVKQRPEQGLEWIGWIDPANGDTAYAPRFQVKATMTADKSSNTAYLQLSSLTSEDTAVYYCNADLPMDQWGQGTSVTVSSAAALEHHHHHH
notes: also called 野生scFv抗体フラグメント; 野生型scFv抗体フラグメント
Regarding B1, the binding result is on record as “binds”.
